Results on two proteins are retold here after US20130078661.

A value given as a limit tells only on which side of the number the result lay.

Series [1] has as its target Multimeric human plasma VWF.
The target in series [2] is T1, XS-VWF (Venus - VWF 1594-1670 - Cerulean - His tag FRET protein).
T1 chain: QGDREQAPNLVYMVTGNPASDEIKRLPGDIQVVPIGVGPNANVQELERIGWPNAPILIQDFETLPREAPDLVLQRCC

In series [3] the target is T2, XS-VWF(AA) (XS-VWF with Y1605-M1606 replaced by A1605-A1606).
T2 chain: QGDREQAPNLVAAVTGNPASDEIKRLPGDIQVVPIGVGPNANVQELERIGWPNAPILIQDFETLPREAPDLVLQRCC

For series [4], the target named is T3, S-VWF (Venus - VWF 1558-1670 - Cerulean - His tag FRET protein).
T3 chain: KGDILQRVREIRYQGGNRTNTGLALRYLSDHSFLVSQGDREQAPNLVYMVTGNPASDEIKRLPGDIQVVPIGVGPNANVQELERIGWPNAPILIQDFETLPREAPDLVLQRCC

Series [5] deals with Mutant VWF-A2 FRET protein with Cysteine to Glycine at positions 1669 and 1670 (CC1669-70GG).
The target in series [6] is Mutant VWF-A2 FRET protein with a change at Pro1645 (P1645A).
Series [7] concerns the target T4, L-VWF (Venus - VWF 1496-1670 - Cerulean - His tag FRET protein).
T4 chain: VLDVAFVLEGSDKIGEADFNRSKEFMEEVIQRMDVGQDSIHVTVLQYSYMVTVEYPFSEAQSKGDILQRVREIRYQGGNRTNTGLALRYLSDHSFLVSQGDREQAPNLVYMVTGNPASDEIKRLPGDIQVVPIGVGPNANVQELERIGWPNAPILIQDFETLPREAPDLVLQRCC

Series [8] deals with T5, M-VWF (Venus - VWF 1530-1670 - Cerulean - His tag FRET protein).
T5 chain: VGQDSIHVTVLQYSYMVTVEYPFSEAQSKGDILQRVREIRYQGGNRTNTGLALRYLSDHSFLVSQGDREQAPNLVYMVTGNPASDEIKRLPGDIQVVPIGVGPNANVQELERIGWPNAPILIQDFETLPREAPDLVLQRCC

B1: Recombinant human ADAMTS13 (protein)
chain: AAGGILHLELLVAVGPDVFQAHQEDTERYVLTNLNIGAELLRDPSLGAQFRVHLVKMVILTEPEGAPNITANLTSSLLSVCGWSQTINPEDDTDPGHADLVLYITRFDLELPDGNRQVRGVTQLGGACSPTWSCLITEDTGFDLGVTIAHEIGHSFGLEHDGAPGSGCGPSGHVMASDGAAPRAGLAWSPCSRRQLLSLLSAGRARCVWDPPRPQPGSAGHPPDAQPGLYYSANEQCRVAFGPKAVACTFAREHLDMCQALSCHTDPLDQSSCSRLLVPLLDGTECGVEKWCSKGRCRSLVELTPIAAVHGRWSSWGPRSPCSRSCGGGVVTRRRQCNNPRPAFGGRACVGADLQAEMCNTQACEKTQLEFMSQQCARTDGQPLRSSPGGASFYHWGAAVPHSQGDALCRHMCRAIGESFIMKRGDSFLDGTRCMPSGPREDGTLSLCVSGSCRTFGCDGRMDSQQVWDRCQVCGGDNSTCSPRKGSFTAGRAREYVTFLTVTPNLTSVYIANHRPLFTHLAVRIGGRYVVAGKMSISPNTTYPSLLEDGRVEYRVALTEDRLPRLEEIRIWGPLQEDADIQVYRRYGEEYGNLTRPDITFTYFQPKPRQAWVWAAVRGPCSVSCGAGLRWVNYSCLDQARKELVETVQCQGSQQPPAWPEACVLEPCPPYWAVGDFGPCSASCGGGLRERPVRCVEAQGSLLKTLPPARCRAGAQQPAVALETCNPQPCPARWEVSEPSSCTSAGGAGLALENETCVPGADGLEAPVTEGPGSVDEKLPAPEPCVGMSCPPGWGHLDATSAGEKAPSPWGSIRTGAQAAHVWTPAAGSCSVSCGRGLMELRFLCMDSALRVPVQEELCGLASKPGSRREVCQAVPCPARWQYKLAACSVSCGRGVVRRILYCARAHGEDDGEEILLDTQCQGLPRPEPQEACSLEPCPPRWKVMSLGPCSASCGLGTARRSVACVQLDQGQDVEVDEAACAALVRPEASVPCLIADCTYRWHVGTWMECSVSCGDGIQRRRDTCLGPQAQAPVPADFCQHLPKPVTVRGCWAGPCVGQGTPSLVPHEEAAAPGRTTATPAGASLEWSQARGLLFSPAPQPRRLLPGPQENSVQSSACGRQHLEPTGTIDMRGPGQADCAVAIGRPLGEVVTLRVLESSLNCSAGDMLLLWGRLTWRKMCRKLLDMTFSSKTNTLVVRQRCGRPGGGVLLRYGSQLAPETFYRECDMQLFGPWGEIVSPSLSPATSNAGGCRLFINVAPHARIAIHALATNMGAGTEGANASYILIRDTHSLRTTAFHGQQVLYWESESSQAEMEFSEGFLKAQASLRGQYWTLQSWVPEMQDPQSWKGKEGT
With B1, in series [1], the “cleavage after pre-denaturation with 4M urea, western blot” value is recorded as “Proteolysis was however complete at urea>2.4M, provided a pre-denaturation step was included”; the “cleavage without pre-denaturation, western blot” value was “multimeric VWF was also not fully cleaved when the protein was incubated with varying urea concentrations and ADAMTS13”. Moreover, in series [2], the “FRET ratio after 1 h with ADAMTS13, no denaturant” value (“FRET ratio … no denaturant” below) was “FRET ratio increased from 0.78 to 1.73 for XS-VWF”; the “cleavage, western blot with anti-his pAb” value is “XS-VWF but not XS-VWF(AA) was cleaved by recombinant ADAMTS13”; the “extent of cleavage (FRET ratio and western blot), varying urea” value was “Complete cleavage of XS-VWF and S-VWF was observed at urea concentrations <2.8M”. Besides, in series [3], the “FRET ratio … no denaturant” value is recorded as “There was very little change in the FRET ratio of ... XS-VWF(AA)” and the “cleavage, western blot with anti-his pAb” value is reported as “XS-VWF but not XS-VWF(AA) was cleaved by recombinant ADAMTS13”. For the same protein, in series [4], the “FRET ratio … no denaturant” value is given as “from 1.24 to 1.84 for S-VWF”; the “extent of cleavage (FRET ratio and western blot), varying urea” value is “Complete cleavage of XS-VWF and S-VWF was observed at urea concentrations <2.8M”. Besides, in series [5], the “cleavage in 1M urea, western blot” value is “substitution of Cysteine by Glycine at positions 1669 and 1670 enhances VWF A2 domain proteolysis”. In series [6], the “cleavage in 1M urea, western blot” value is given as “changes in the Pro1645 site enhances VWF cleavage even in the presence of low concentrations of urea that are insufficient to cleave the wild-type protein”. In addition, in series [7], the “FRET ratio … no denaturant” value is “There was very little change in the FRET ratio of ... L-VWF”; the “cleavage at 2M urea after pre-denaturation with 4M urea” value is on record as >90% cleavage of L-VWF was observed at 2M urea upon inclusion of the pre-denaturation step; the “extent of cleavage, no urea” value was “In the absence of urea, the extent of cleavage of both L- and M-VWF was 20%”; the “proteolysis at 1.6M urea” value was “Increasing urea concentration to 1.6M resulted in 30% proteolysis”. For the same protein, in series [8], the “FRET ratio … no denaturant” value is recorded as “There was very little change in the FRET ratio of M-VWF”; the “extent of cleavage, no urea” value was “In the absence of urea, the extent of cleavage of both L- and M-VWF was 20%”; the “proteolysis at 1.6M urea” value is given as “Increasing urea concentration to 1.6M resulted in 30% proteolysis”.

B2: ADAMTS13 in human plasma (protein)
chain: AAGGILHLELLVAVGPDVFQAHQEDTERYVLTNLNIGAELLRDPSLGAQFRVHLVKMVILTEPEGAPNITANLTSSLLSVCGWSQTINPEDDTDPGHADLVLYITRFDLELPDGNRQVRGVTQLGGACSPTWSCLITEDTGFDLGVTIAHEIGHSFGLEHDGAPGSGCGPSGHVMASDGAAPRAGLAWSPCSRRQLLSLLSAGRARCVWDPPRPQPGSAGHPPDAQPGLYYSANEQCRVAFGPKAVACTFAREHLDMCQALSCHTDPLDQSSCSRLLVPLLDGTECGVEKWCSKGRCRSLVELTPIAAVHGRWSSWGPRSPCSRSCGGGVVTRRRQCNNPRPAFGGRACVGADLQAEMCNTQACEKTQLEFMSQQCARTDGQPLRSSPGGASFYHWGAAVPHSQGDALCRHMCRAIGESFIMKRGDSFLDGTRCMPSGPREDGTLSLCVSGSCRTFGCDGRMDSQQVWDRCQVCGGDNSTCSPRKGSFTAGRAREYVTFLTVTPNLTSVYIANHRPLFTHLAVRIGGRYVVAGKMSISPNTTYPSLLEDGRVEYRVALTEDRLPRLEEIRIWGPLQEDADIQVYRRYGEEYGNLTRPDITFTYFQPKPRQAWVWAAVRGPCSVSCGAGLRWVNYSCLDQARKELVETVQCQGSQQPPAWPEACVLEPCPPYWAVGDFGPCSASCGGGLRERPVRCVEAQGSLLKTLPPARCRAGAQQPAVALETCNPQPCPARWEVSEPSSCTSAGGAGLALENETCVPGADGLEAPVTEGPGSVDEKLPAPEPCVGMSCPPGWGHLDATSAGEKAPSPWGSIRTGAQAAHVWTPAAGSCSVSCGRGLMELRFLCMDSALRVPVQEELCGLASKPGSRREVCQAVPCPARWQYKLAACSVSCGRGVVRRILYCARAHGEDDGEEILLDTQCQGLPRPEPQEACSLEPCPPRWKVMSLGPCSASCGLGTARRSVACVQLDQGQDVEVDEAACAALVRPEASVPCLIADCTYRWHVGTWMECSVSCGDGIQRRRDTCLGPQAQAPVPADFCQHLPKPVTVRGCWAGPCVGQGTPSLVPHEEAAAPGRTTATPAGASLEWSQARGLLFSPAPQPRRLLPGPQENSVQSSACGRQHLEPTGTIDMRGPGQADCAVAIGRPLGEVVTLRVLESSLNCSAGDMLLLWGRLTWRKMCRKLLDMTFSSKTNTLVVRQRCGRPGGGVLLRYGSQLAPETFYRECDMQLFGPWGEIVSPSLSPATSNAGGCRLFINVAPHARIAIHALATNMGAGTEGANASYILIRDTHSLRTTAFHGQQVLYWESESSQAEMEFSEGFLKAQASLRGQYWTLQSWVPEMQDPQSWKGKEGT
Broadly, the KM is the concentration of substrate that gives half-maximal velocity. As a reminder, the kcat is the maximal rate divided by the concentration of active sites. For B2, the KM was 4.6 µM and KM=4 µM in series [2]; 1.8 µM in series [4]. Further, the kcat amounted to 0.747 s⁻¹ in series [2] and 0.295 s⁻¹ in series [4]. The “cleavage by FRET, 20% human plasma, 2 hours, 2M urea” value in series [5] and in series [6] was “higher cleavage of mutant VWF proteins compared to the wild-type molecule upon addition of low concentrations of urea” in each case.
